Source: US7192728B2, “Screening assays for agents that alter inhibitor of apoptosis (IAP) protein regulation of caspase activity” (The Burnham Institute, priority 1997, dated 2007)

Tests used:
[1] = tested on: 293T cells; assay: Bax-induced apoptosis and caspase activation in transfected 293T cells; type: cell-based, human
Experimental: N-benzyloxycarbonyl-Val-Ala-Asp fluoromethylketone (zVAD-fmk; 50 μM) (Bachem Calif.; Torrance, Calif.) was added immediately after transfection of the Bax plasmid. Transfection efficiency was uniformly 80–90%, as determined by X-Gal staining following cotransfection with pCMV-βGal.
Cells were maintained in culture for 24 hr, then floating and attached cells were harvested and an aliquot was removed and the percent of dead cells was determined by either trypan blue or propidium iodide (PI) dye exclusion assay. A second aliquot was used to assess the percentage of apoptotic cells with subdiploid DNA content by FACS analysis of PI stained, ethanol fixed cells. The remaining cell pellets were lysed in 10 mM HEPES (pH 7.5), 142 mM KCl, 1 mM EGTA, 1 mM DTT, 0.2% NP-40, 0.1 mM PMSF and used for immunoblot analysis or for protease assays.

[2] = molecular target: T1, pro-caspase-9 (Homo sapiens, UniProt P55211); assay: In vitro reconstituted pro-caspase-9 processing (Apaf-1, cytochrome c, dATP); type: biochemical; settings: 0.1 μM protein; Apaf-1, 10 μM cytochrome c, 1 mM dATP
T1 construct: in vitro translated ^35S-labeled pro-caspase-9 and Apaf-1 were incubated individually or together; His6; made in house; host or cells: coupled in vitro transcription/translation in reticulocyte lysate (TNT kit, Promega)
T1 sequence (P55211 1-416): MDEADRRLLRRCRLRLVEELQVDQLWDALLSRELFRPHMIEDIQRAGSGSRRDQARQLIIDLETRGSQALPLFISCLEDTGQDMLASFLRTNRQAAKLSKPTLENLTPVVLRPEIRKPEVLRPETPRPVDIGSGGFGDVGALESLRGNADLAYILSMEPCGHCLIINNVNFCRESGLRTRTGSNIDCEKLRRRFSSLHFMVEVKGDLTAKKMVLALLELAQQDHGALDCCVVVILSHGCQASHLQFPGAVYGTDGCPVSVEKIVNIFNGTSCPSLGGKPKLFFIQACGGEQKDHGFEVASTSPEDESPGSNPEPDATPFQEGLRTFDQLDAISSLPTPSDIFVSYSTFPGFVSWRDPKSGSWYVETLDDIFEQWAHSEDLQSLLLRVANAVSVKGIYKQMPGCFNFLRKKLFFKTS

[3] = molecular target: T2, caspase-9 (Homo sapiens, UniProt P55211); assay: Inhibition of purified recombinant active caspase-9; type: biochemical; settings: for pro-caspase-3 activation by caspase-9, coupled Ac-DEVD-AFC hydrolysis (in words): coupled reaction
T2 construct: Full length N-terminally tagged caspase-9 was subcloned from pcDNA3; His6 (N); made in house; host or cells: E. coli BL21 (DE3), vector pET-23d
T2 sequence (P55211 1-315 limits assumed): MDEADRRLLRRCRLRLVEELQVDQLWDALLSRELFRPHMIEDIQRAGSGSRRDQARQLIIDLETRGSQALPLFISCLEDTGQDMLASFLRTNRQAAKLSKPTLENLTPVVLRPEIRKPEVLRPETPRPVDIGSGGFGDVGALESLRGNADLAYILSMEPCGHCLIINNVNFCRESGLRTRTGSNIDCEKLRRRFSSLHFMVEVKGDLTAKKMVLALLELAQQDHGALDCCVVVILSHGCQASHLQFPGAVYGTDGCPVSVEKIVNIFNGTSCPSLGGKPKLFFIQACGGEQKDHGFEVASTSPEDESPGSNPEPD
T2 sequence (P55211 331-416 limits assumed): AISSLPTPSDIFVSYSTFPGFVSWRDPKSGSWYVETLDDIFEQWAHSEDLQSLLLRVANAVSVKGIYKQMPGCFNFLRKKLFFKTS
Experimental: Caspase-9 activity was measured by monitoring the processing and activity of the purified recombinant zymogen form of caspase-3 that was produced in bacteria. Active caspase-9 (0.1 μM) was incubated with pro-caspase-3 (0.5 μM) in the presence or absence of GST-XIAP (0.1 μM). Experiments were performed with two independent preparations of active caspase-9. Samples were subsequently analyzed for pro-caspase-3 processing by immunoblot analysis. Asterisks denote the processed forms of the large subunit of caspase-3. Samples were simultaneously assayed for release of the AFC fluorophore from DEVD-AFC. Activity was arbitrarily designated as 100% for one of the two preparations of active caspase-9.
For the results shown in FIG. 7C, pro-caspase-9 was in vitro translated in reticulocyte lysates in the presence of ^35S-L-methionine and then purified by metal chromatography. […] Proteins were analyzed by SDS-PAGE and autoradiography. An asterisk denotes the processed form of caspase-9.

[4] = tested on: 293 cells; assay: Fas-induced apoptosis in transfected 293 cells; type: cell-based, human; settings: co-transfection of Fas and myc-XIAP; 36 hrs
Experimental: For determination of apoptotic activity in FIG. 2B, 293 cells in 60 mm dishes were transiently transfected with 6 μg of pcDNA-myc-tag control or pcDNA-myc-XIAP plasmids, and either 2 ug of pCMV5 or pCMV5-Fas plasmid DNA. All transfections included 0.5 ug of pEGFP as a marker and were normalized for total DNA content. The percentage of GFP positive cells with apoptotic morphology and nuclear changes consistent with apoptosis were enumerated by DAPI-staining (mean+SD; n=3) at 36 hrs. Alternatively, cell lysates were prepared, and immunoprecipitates were collected using anti-myc monoclonal antibody with protein-G-Sepharose, followed by SDS-PAGE immunoblot assay using anti-caspase-3 antiserum (Krajewska et al., supra 1997) to reveal the XIAP-associated p24 isoform of partially processed caspase-3. Lanes correspond to cells transfected with: (1) control plasmid; (2) myc-XIAP; (3) Fas plus myc-control; and (4) Fas plus myc-XIAP.
Apoptotic assays were performed as follows. 293 cells were transfected as described above, except that 0.5 μg pEGFP plasmid DNA was included.

[5] = molecular target: T3, caspase-3 (Homo sapiens, UniProt P42574); assay: GST pull-down binding to caspase-3; settings: glutathione-Sepharose beads, immunoblot
T3 construct: to produce the 17–20 kDa mature, fully processed large subunit of the active caspase-3 enzyme; a smaller, fully processed, subunit of about 11 kDa; His6; made in house; host or cells: E. coli BL21(DE3)pLysS
T3 sequence (P42574 29-175 limits assumed): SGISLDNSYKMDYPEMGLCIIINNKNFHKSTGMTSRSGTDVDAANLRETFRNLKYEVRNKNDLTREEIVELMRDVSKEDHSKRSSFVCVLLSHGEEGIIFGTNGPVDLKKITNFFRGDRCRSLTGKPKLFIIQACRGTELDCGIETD
T3 sequence (P42574 176-277 limits assumed): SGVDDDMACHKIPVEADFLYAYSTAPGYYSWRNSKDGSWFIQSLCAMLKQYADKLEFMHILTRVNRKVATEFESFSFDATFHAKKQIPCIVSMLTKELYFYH
Experimental: Following incubation at 4° C. for 60 min, the beads were removed by centrifugation and washed twice with 100 vol 50 mM Tris (pH 7.5), 150 mM KCl, 2 mM DTT and 0.025% Triton-X100, then subjected to SDS-PAGE and immunoblot assay (see Example I.B.3).

pro-caspase-9 processing in reconstituted system (in words) [2]	processing of 35S-pro-caspase-9 by active caspase-9 (in words) ([3]; 0.1 μM caspase-9, 0.1 μM GST-XIAP, 30° C., 1 hr)	pro-caspase-3 activation by caspase-9, coupled Ac-DEVD-AFC hydrolysis (in words) [3]	cleavage of pro-caspase-3 by caspase-9, immunoblot (in words) ([3]; equimolar to caspase-9 (0.1 μM), pro-caspase-3 0.5 μM)	binding of caspase-3 (in words) [5]	Substance	apoptotic cells (PI staining) in Bax expressing cells ([1]; 24 hr, Bax alone about 25%, zVAD-fmk 50 μM)	Bax-induced generation of caspase activity and pro-caspase-3 processing (in words) ([1]; DEVD-AFC hydrolysis and immunoblot of cell extracts)	apoptotic cells (PI staining) ([1]; XIAP expressed without Bax, control plasmid about 2%)	Fas-induced apoptosis (in words) [4]
completely blocked	potently inhibited	efficiently inhibited	strongly inhibited	Specific binding	XIAP: X chromosome linked inhibitor of apoptosis protein (Genbank U32974), used mostly as recombinant GST fusion or expressed from plasmid	less than 10%	markedly inhibited	about 5%	markedly suppressed
completely blocked		efficiently inhibited		bound	c-IAP-2: cellular IAP protein c-IAP-2/HIAP-1/hMIHC, recombinant GST fusion or myc-tagged				
